In patent US20240287172A1 (SCIRHOM, published 2024):

Columns and labels:
hiR2-FL-D504A-T7 = target: T1, hiR2-FL-D504A-T7 (human, UniProt Q6PJF5 1-856); assay: FACS on MEF-DKO cells expressing the variant, 3 µg/ml antibody
T1 construct: reduced surface expression reported
T1 sequence: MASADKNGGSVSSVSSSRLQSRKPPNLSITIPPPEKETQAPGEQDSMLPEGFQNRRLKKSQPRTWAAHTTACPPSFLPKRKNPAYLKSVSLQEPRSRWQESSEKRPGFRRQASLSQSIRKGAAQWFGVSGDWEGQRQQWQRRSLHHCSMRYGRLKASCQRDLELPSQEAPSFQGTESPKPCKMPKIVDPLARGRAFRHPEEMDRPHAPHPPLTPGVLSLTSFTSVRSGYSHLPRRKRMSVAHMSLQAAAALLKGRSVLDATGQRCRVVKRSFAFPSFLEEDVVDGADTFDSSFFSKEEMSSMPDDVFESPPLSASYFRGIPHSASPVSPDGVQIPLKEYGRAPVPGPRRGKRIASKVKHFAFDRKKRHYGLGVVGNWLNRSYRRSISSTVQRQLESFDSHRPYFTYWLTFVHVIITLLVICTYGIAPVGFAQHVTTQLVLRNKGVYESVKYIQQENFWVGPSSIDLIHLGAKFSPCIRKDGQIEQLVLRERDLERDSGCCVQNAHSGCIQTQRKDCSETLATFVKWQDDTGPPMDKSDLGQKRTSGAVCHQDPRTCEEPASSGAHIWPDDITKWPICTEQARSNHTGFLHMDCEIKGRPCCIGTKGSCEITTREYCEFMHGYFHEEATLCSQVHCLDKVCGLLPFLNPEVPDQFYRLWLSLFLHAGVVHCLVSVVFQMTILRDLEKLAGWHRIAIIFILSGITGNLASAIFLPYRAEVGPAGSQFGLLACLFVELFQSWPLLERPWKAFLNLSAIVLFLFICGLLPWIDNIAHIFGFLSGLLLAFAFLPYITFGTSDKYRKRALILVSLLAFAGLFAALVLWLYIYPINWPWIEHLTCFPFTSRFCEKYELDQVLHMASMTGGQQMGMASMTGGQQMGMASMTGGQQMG
In short: (§1)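 Primary stain: antibody 3 μg/ml, 1 h on ice; controls buffer alone. Secondary: PE anti-mouse IgG F(ab′)2 1:100, 1 h on ice, light-protected. Washes at 4° C; read by flow cytometry.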

hiR2-FL-T586A-T7 = target: T2, hiR2-FL-T586A-T7 (human, UniProt Q6PJF5 1-856); assay: as above
T2 sequence: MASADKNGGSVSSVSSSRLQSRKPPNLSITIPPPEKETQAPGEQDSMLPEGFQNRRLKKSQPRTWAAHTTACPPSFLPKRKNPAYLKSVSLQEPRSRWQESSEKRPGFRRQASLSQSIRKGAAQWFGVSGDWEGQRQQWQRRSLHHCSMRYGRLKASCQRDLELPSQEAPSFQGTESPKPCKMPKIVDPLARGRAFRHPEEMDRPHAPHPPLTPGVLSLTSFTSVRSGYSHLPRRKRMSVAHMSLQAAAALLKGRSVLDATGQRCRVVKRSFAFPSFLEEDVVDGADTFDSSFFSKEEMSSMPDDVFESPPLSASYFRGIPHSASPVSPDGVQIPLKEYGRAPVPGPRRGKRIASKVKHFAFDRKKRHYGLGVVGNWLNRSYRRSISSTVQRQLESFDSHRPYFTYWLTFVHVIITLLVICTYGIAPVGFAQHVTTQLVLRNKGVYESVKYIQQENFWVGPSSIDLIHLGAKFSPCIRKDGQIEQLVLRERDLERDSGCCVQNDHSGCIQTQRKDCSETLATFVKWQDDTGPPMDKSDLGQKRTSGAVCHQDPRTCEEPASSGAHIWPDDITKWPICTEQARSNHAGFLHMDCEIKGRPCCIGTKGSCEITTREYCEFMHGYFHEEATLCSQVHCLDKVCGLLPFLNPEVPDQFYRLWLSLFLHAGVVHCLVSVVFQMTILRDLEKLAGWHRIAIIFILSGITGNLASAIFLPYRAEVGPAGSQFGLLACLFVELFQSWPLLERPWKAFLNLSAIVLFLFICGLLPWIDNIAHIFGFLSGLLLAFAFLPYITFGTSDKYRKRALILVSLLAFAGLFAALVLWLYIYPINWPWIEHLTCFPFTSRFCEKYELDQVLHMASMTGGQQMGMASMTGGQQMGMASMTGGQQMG
In short: as §1

B1: antibody 48 (antibody, V domains shown)
VH: QVQLQQSGTELVRPGTSVKVSCKASGYAFTNYLIEWVKQRPGQGLEWIGVINPGSGFTKYNEKFKGKATLTADKSSSTVYMHLSSLTSEDSAVYFCARGLYRAMDYWGQGTSVTVSS
VL: DIQMTQSPASQSASLGESVTITCLASQTIATWLAWYQQKPGKSPQLLIYGATTLADGVPSRFSGGGSGTKFSFKISSLQAEDFVSYYCQQLYSTPYTFGGGTKLEIK
notes: mouse IgG, kappa light chain; also called clone #48; purified antibody 48
loss of binding vs wild type (hiR2-FL-D504A-T7): ≥ 60%

B2: antibody 50 (antibody, V domains shown)
VH: QVQLQQSGAELVRPGASVKVSCKASGYAFSNYLIEWVKQRPGQGLEWIGVINPGSGFTKYNEKFKGKATLTADKSSSTAYMQLSSLTSEDSAVYFCARGLYRAMDYWGQGTSVTVSS
VL: DIQMTQSPASQSASLGESVTITCLASQTIGTWLAWYQQKPGKSPQLLIYAAASLADGVPSRFSGGGSGTKFSFKISSLQAEDFVNYYCQQIYSTPYTFGGGTKLEIK
notes: mouse IgG, kappa light chain; also called clone #50; purified antibody 50
loss of binding vs wild type (hiR2-FL-D504A-T7): ≥ 60%

B3: antibody 3 (antibody, V domains shown)
VH: QVTLKESGPGILQPSQTLSLTCSFSGFSLTTFAMGIGWVRQPSGKGLEWLAHIWWDGEKYNNPVLKSRLTISKDTSKNQVFLRIANVDTPDTATYYCARISSIYYIIDNWGQGTSVTVSS
VL: DIVLTQSPATLSVTPGHSVSLSCRASQSISNNLHWYQKKSHESPRLLIKYVSQSISGIPSRFSGSGSGTDFTLSINSVETEDFGMYFCQQSYNWPLTFGAGTKLELK
notes: mouse IgG, kappa light chain; also called clone #3; purified antibody 3
loss of binding vs wild type (hiR2-FL-T586A-T7): ≥ 30%

B4: antibody 5 (antibody, V domains shown)
VH: QVTLKESGPGILQPSQTLSLTCSFSGFSLSTFGMGVGWIRQPSGKGLEWLAHIWWDDEKYYNSALKSRLTISKATSKNQAFLKIANVDTADTATYYCARISNYGSNYWYFNVWGTGTTVTVSS
VL: QVVLTQSPALMSASPGEKVTMTCSAGSSVSCMYWYQQKPGSSPRVLIYDTSNLASGVPARFTGSGSGTSYSLTISRMEAEDAASYYCQQWNSYPLTFGAGTKLELK
notes: mouse IgG, kappa light chain; also called clone #5; purified antibody 5
loss of binding vs wild type (hiR2-FL-T586A-T7): ≥ 30%
